Results published in the supplement of paper PMC10126150.
± gives the standard deviation of the averaged measurements.

The sequences below were run on ATP (assay: switch fluorescence ratio, 500 uM ATP over buffer (Cy3 cluster intensity, sum of 5 cycles each) (fold (ratio)); higher = stronger signal-on switching upon ATP binding; sequences stand for … in TCGTCGGCAGCGTCAGATGTGTATAAGAGACAGTTTTTTTTTTTTTTTTTTTTTTTTT…TC). Details: aptamer strand: ATP DNA aptamer (quencher-CACCTGGGGGAGTATTGCGGAGGAAGG + anchor), 100 nM annealed; ATP concentration: 500 uM.
Summary of the method: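 For every switch-domain sequence, the fluorescence ratio is the mean of per-cluster values, each being summed target-cycle Cy3 intensity over summed buffer-cycle Cy3 intensity. Clusters outside 100-1000 RFU were excluded. On a modified Illumina MiSeq flow-cell, the Cy3-labelled switching-strand clusters were annealed to 100 nM quencher-labelled ATP aptamer, imaged in selection buffer and then after 15 min with 500 uM ATP at 22 °C. Five such cycles were run, with NaOH stripping and re-annealing between them.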
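Note: ATP exposure 15 min at 22 °C before imaging.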

Sequence | switch fluorescence ratio
TAATGGGGTC | 0.9801 ± 0.0029
TCCATCGGGA | 1.14 ± 0.14
CTCATACGGG | 1.05 ± 0.036
AAGTGCTGGG | 0.993 ± 0.034
CGGAAGGCTT | 0.982 ± 0.0095
GGGCCTGAGG | 0.969 ± 0.028
TATATTCGCT | 0.988 ± 0.012
TTATTCTTGT | 1 ± 0.017
TTTGTTCATC | 0.97 ± 0.024
TTTCTTGTCT | 1.01 ± 0.035
TACGCTGGGG | 1.02 ± 0.04
ATTTGTCCGT | 1.03 ± 0.018
CGTGGTTAAG | 1.01 ± 0.038
TATAGCCCGT | 1.02 ± 0.016
CATGGGAGCT | 1.01 ± 0.043
AGAAGGGAGG | 0.987 ± 0.011
AGCGCATGTG | 0.996 ± 0.013
AATCTTTGCT | 1.011 ± 0.0063
ATGTTTGGCC | 1.04 ± 0.041
CTCGGACCTT | 1.19 ± 0.017
CGGAACATGC | 1.6 ± 0.12
CAGTTCCATG | 0.9857 ± 0.0091
GTATCATGCC | 1.01 ± 0.011

Sequence | switch fluorescence ratio
TTTGCATTCT | 1.004 ± 0.0078
TTTGCGTTAC | 1.58 ± 0.053
TTTAGGGATA | 1.09 ± 0.19
GTTCTAGGAG | 1 ± 0.019
ACTCGTCACA | 1.15 ± 0.059
TCCTACGGGG | 1.14 ± 0.18
GAATTTGTGG | 0.995 ± 0.037
GCACATTTGC | 0.95 ± 0.079
TTATGGGGCG | 1.02 ± 0.035
TGTGTTCCGA | 0.9975 ± 0.0083
ATTGCAGCTG | 0.9637 ± 0.0015
TTTACTTTTT | 1.01 ± 0.027
AGGGAGTAGG | 1.12 ± 0.029
CGAATGGCGT | 1.029 ± 0.0063
CTCTATTGGG | 0.993 ± 0.014
AAGCTTCGGG | 1.06 ± 0.029
TTTAATACGC | 1.38 ± 0.26
GAGGGTTAAT | 1.02 ± 0.02
CGTACACGTT | 1.02 ± 0.051
CTAAAGTACT | 1.11 ± 0.041
TTCGTTTTCG | 0.991 ± 0.029
GGTACACGGG | 1.01 ± 0.054
TTGATTATAT | 1.02 ± 0.012

Sequence | switch fluorescence ratio
ACCTGGTGTT | 1.23 ± 0.39
TGTTCTTAGT | 1 ± 0.048
GTGGGGCGGG | 0.999 ± 0.02
TTTATGGATT | 1.006 ± 0.01
ACATGCATTA | 1.02 ± 0.026
ATGTCAGGTG | 4.1 ± 0.71
ATCTCACAGA | 0.989 ± 0.025
TTTTTTGCTC | 1.02 ± 0.033
CTAATTTGCT | 1.04 ± 0.056
TCACAGTCTA | 1.04 ± 0.058
TTTAGAGTTC | 0.997 ± 0.021
TGAGAGGAAG | 0.989 ± 0.018
TGTTTTAGCT | 0.973 ± 0.021
GGGGATATTT | 1 ± 0.014
GGGGACAGGT | 1.03 ± 0.0057
ATTCGTTAGA | 0.999 ± 0.011
AGTGCAGGTG | 2.438 ± 0.015
ATGGGTCAGT | 0.9872 ± 0.0044
GTGTTTAATT | 1.03 ± 0.035
TTGCTTGGAA | 0.992 ± 0.026
GACTCGAAAA | 1.17 ± 0.16
AGAGCGAGGA | 0.986 ± 0.027
TAAAGTTAGG | 1 ± 0.011

Sequence | switch fluorescence ratio
AAGGTATTAG | 0.9926 ± 0.0055
CTGAATACGT | 1.009 ± 0.0078
GCCGTTATGG | 1.02 ± 0.053
TATGGTTCGC | 0.997 ± 0.055
GGTTCAAGGT | 0.994 ± 0.027
GGGACTTATG | 1 ± 0.013
AACGGTGATT | 1.01 ± 0.07
ATTTCCATGT | 0.978 ± 0.011
ACGTTTTTGC | 1.02 ± 0.044
TAATTGGTGC | 1.049 ± 0.0075
TGAGCATGAA | 1 ± 0.024
TAATGATTTC | 0.992 ± 0.011
GGGAGGCCGG | 1 ± 0.036
GCAAGGGTTG | 1.01 ± 0.022
CACCTGTCCG | 1.06 ± 0.02
ATGAAAGGGT | 0.998 ± 0.023
TTAGGTACGG | 1.035 ± 0.01
ATTTTTTGTG | 0.9732 ± 0.0082
TCGGCGAAAA | 1.84 ± 1.1
AGAATGAGTG | 1.026 ± 0.0048
GGATGAACGG | 1.01 ± 0.079
TGAGTGCAGG | 1.02 ± 0.066
TCGGCAGCGG | 1.01 ± 0.034

Sequence | switch fluorescence ratio
AATCTATAAT | 1.007 ± 0.0018
TTTATTGGAC | 1.01 ± 0.078
GGCTTAGTTT | 1.01 ± 0.0055
TTGTAGACGT | 1.02 ± 0.0093
ATTTACATCA | 1.02 ± 0.013
AGCCTTACGT | 1.115 ± 0.0039
CGTTTCGTTG | 0.9635 ± 0.0019
CGGACAGGGT | 0.992 ± 0.013
AGGCAAAGCA | 1.05 ± 0.073
TTGTCTATGA | 0.986 ± 0.028
GTCGCCGGGT | 0.994 ± 0.026
TGAGCCGGGA | 1 ± 0.019
TGTTTTGGTT | 0.991 ± 0.025
TTGGCGGGAT | 1.03 ± 0.017
CAGATGAGGG | 1.005 ± 0.0057
AATTGTGCCT | 1.08 ± 0.055
CGGTTAGACG | 0.977 ± 0.008
CGGGGTAATC | 1.03 ± 0.047
CAGTGTGAAG | 0.958 ± 0.016
ATTTCCGCAG | 3.82 ± 0.56
ACTTGTCATC | 0.992 ± 0.043
TAGAACAGTT | 0.9982 ± 0.0013
ATTTGGGGGG | 1 ± 0.047

Sequence | switch fluorescence ratio
GCATGTAGTG | 0.9794 ± 0.005
GAATGTATGA | 0.99 ± 0.023
GGGGATTTCA | 0.989 ± 0.024
CGTGATTATA | 0.992 ± 0.0072
GCGCGTCAAG | 1.012 ± 0.009
GTGCAACTAC | 2.93 ± 0.32
TCGTGGGGAG | 0.982 ± 0.015
TCAGATGGGG | 1.03 ± 0.021
ATAGAGTTCT | 0.997 ± 0.041
AAACGGCGTT | 0.9725 ± 0.0013
GCGGGATACA | 1.07 ± 0.034
TTGACAGT | 0.9777 ± 0.0022
CGTTCTGGTC | 0.999 ± 0.046
GAGTGCTTAA | 0.971 ± 0.022
TTGAGAGTTT | 1.04 ± 0.093
TCATTAAGGG | 0.99105 ± 0.00093
ATTTAGTCAG | 0.9737 ± 0.0053
TTTCAGAGGG | 0.992 ± 0.011
TGGAGAAAGG | 1.13 ± 0.29
GCAGTTTGGC | 1.01 ± 0.057
ATGGAGGGGG | 1.02 ± 0.047
TGTTTTGATC | 0.977 ± 0.029
CCTGAAATAT | 2.53 ± 1.7

Sequence | switch fluorescence ratio
GGGTTTTCAT | 0.993 ± 0.012
GTGCGGGGCG | 1.02 ± 0.067
ACCTGATGTC | 1.06 ± 0.015
TAGATTAGGA | 1.01 ± 0.036
AATGACTCAT | 0.9808 ± 0.0049
CGGCTATCTC | 1.381 ± 0.011
CGCCTGGCTT | 1 ± 0.013
ATGAGTCATG | 1.01 ± 0.028
CCTAGCCCTT | 1.05 ± 0.054
TTTGGACAGG | 1.004 ± 0.0071
CTTCTCTAGT | 0.9742 ± 0.0069
TATAATTTTT | 1.03 ± 0.074
AGTAGGGAGT | 0.9784 ± 0.0094
TTAGGAGATT | 1.08 ± 0.14
CACACGTGGT | 0.9908 ± 0.0036
GGAGATATCT | 1.11 ± 0.0069
ACGTGCTTTT | 0.999 ± 0.018
CTTTATTTGC | 1.05 ± 0.021
TTGATTTGTC | 0.988 ± 0.011
